Article PMC6849719, “Characterization of the first naturally thermostable terpene synthases and development of strategies to improve thermostability in this family of enzymes” (The Febs Journal, 2017)

Assays:
[1] = system: T1, CC(C)=CCC/C(C)=C/CC/C(C)=C/CO[P@@](=O)(O)OP(=O)(O)O; test: purified protein; format: biochemical, Roseiflexus sp. RS-1; conditions: 65 °C, 10 mM MgCl2, TS buffer (MES/Tris/CAPS, 100 mM NaCl), 1 μM enzyme, FPP 1.2-92 μM, commercial ammonium salt
T1 construct: full length (326 residues), N-terminal His6 tag (pET28a, NheI-EcoRI), codon-optimised gene, E. coli BL21(DE3); ~40 kDa

[2] = substrate: CC(C)=CCC/C(C)=C/CC/C(C)=C/CO[P@@](=O)(O)OP(=O)(O)O; test: purified protein; format: biochemical, Roseiflexus castenholzii; conditions: 65 °C, 10 mM MgCl2, TS buffer (MES/Tris/CAPS, 100 mM NaCl), 1 μM enzyme, FPP 1.2-92 μM, commercial ammonium salt

RoseRS_3509 (Roseiflexus sp. RS-1)
Km [1]: 87 ± 31 µM | kcat [1]: 0.95 ± 0.29 s⁻¹

B1: Rcas_0622 (Roseiflexus castenholzii DSM 13941) (protein)
chain: MDQDYRARLVYPFSGAISPHADIVDQATLAWAAMFGLLTDSLRHKSRRLQYGLLAARAYPRADREMLQIAADWIAWLFFMDDQCDETGIGRDLQRMIALHERFLAILDGATPEAHDCALTYALADLRRRLALRAPDNWLRRFSEHVRLYFTANRWETVNRQRGATPNVATYCAARLFSGAVYACFDLIELAEQIELPFYARHHSIVQQLEQAANNIICWCNDVLSYPKEMQHGDRHNLVLVIQGEHQCSLPEAIDRALDLHAREVATFVRKRTCVPYFDAAVNTALEKYVTGLQFWICANRDWSLTATRYAPTHKSQEMVMAVAQQ
notes: full length, N-terminal His6 tag (pET28a, NheI-EcoRI), codon-optimised gene, E. coli BL21(DE3); ~40 kDa
Km [2]: 5.9 ± 2.0 µM | kcat [2]: 0.09 ± 0.008 s⁻¹
